According to patent US20050208041A1 (Bristol-Myers Squibb, published 2005):
Like-named read-outs stand apart in the source and are kept apart here.

T1: purified recombinant IFNAR-1 extracellular fragment (human, UniProt P17181 28-436)
T1 construct: extracellular domain; also called soluble IFNAR-1; soluble IFNAR
T1 sequence (looked up): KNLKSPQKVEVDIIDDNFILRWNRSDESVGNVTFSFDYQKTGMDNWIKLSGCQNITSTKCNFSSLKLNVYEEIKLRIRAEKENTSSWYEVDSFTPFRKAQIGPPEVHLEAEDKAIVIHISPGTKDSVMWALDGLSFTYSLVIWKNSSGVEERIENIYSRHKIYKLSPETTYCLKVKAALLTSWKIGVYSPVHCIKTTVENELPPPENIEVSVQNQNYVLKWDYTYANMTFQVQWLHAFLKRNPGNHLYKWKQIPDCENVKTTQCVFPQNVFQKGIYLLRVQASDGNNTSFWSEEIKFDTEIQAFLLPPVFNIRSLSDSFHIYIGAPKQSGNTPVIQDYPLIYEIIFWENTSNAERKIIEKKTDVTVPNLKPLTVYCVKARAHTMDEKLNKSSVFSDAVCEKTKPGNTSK


Key:
[1] = biological target: T1, purified recombinant IFNAR-1 …; assay: Biacore, maximal association on IFNAR-1 relative to M3K1
From the text: (§1) Pools 4 and 11 were selected for further study and the individual antibodies in each pool were produced and expressed separately. The sequences of these individual antibodies were as shown in SEQ ID NO:12 of FIG. 1F and SEQ ID NO: 13 of FIG. 1G. The data is presented as maximal association relative to M3K1. […]

[2] = biological target: T1, purified recombinant IFNAR-1 …; assay: as above; remark: listed apart in the source
From the text: as §1

Row | Binder | % activity relative to M3K1 [1] | % activity relative to M3K1 [2]
1 | M3-4 (X = M) heavy chain with K1 light chain (antibody, V domains shown, Position counted within VH CDR3; also called M3-4 M) VH: EVQLLESGGGLVQPGGSLRLSCAFSGFTLSTSGMGIGWVRQAPGKGLEWVAHIWWDDDKYYNPSLKSRFTISRDTSKNTVYLQMNSLRAEDTAVYYCARNYYMYDAWFDYWGQGTLVTVS VL: DIQMTQSPSSLSASVGDRVTITCSASSSINSNHLHWYQQKPGKAPKLLIYRTSILASGVPSRFSGSGSGTSFTLTISSLQPEDFATYYCQQGSNIPFTFGQGTKVEIK | 101% | –
2 | M3-11 (X = I) heavy chain with K1 light chain (antibody, V domains shown, Position counted within VH CDR3; also called M3-11 I) VH: EVQLLESGGGLVQPGGSLRLSCAFSGFTLSTSGMGIGWVRQAPGKGLEWVAHIWWDDDKYYNPSLKSRFTISRDTSKNTVYLQMNSLRAEDTAVYYCARNYYPYDAWFDIWGQGTLVTVS VL: DIQMTQSPSSLSASVGDRVTITCSASSSINSNHLHWYQQKPGKAPKLLIYRTSILASGVPSRFSGSGSGTSFTLTISSLQPEDFATYYCQQGSNIPFTFGQGTKVEIK | – | 81%
3 | M3-11 (X = L) heavy chain with K1 light chain (antibody, V domains shown, the position is counted within CDR3, not on the entry; also called M3-11 L) VH: EVQLLESGGGLVQPGGSLRLSCAFSGFTLSTSGMGIGWVRQAPGKGLEWVAHIWWDDDKYYNPSLKSRFTISRDTSKNTVYLQMNSLRAEDTAVYYCARNYYPYDAWFDLWGQGTLVTVS VL: DIQMTQSPSSLSASVGDRVTITCSASSSINSNHLHWYQQKPGKAPKLLIYRTSILASGVPSRFSGSGSGTSFTLTISSLQPEDFATYYCQQGSNIPFTFGQGTKVEIK | – | 75%
4 | M3-11 (X = K) heavy chain with K1 light chain (antibody, V domains shown, Position counted within VH CDR3; also called M3-11 K) VH: EVQLLESGGGLVQPGGSLRLSCAFSGFTLSTSGMGIGWVRQAPGKGLEWVAHIWWDDDKYYNPSLKSRFTISRDTSKNTVYLQMNSLRAEDTAVYYCARNYYPYDAWFDKWGQGTLVTVS VL: DIQMTQSPSSLSASVGDRVTITCSASSSINSNHLHWYQQKPGKAPKLLIYRTSILASGVPSRFSGSGSGTSFTLTISSLQPEDFATYYCQQGSNIPFTFGQGTKVEIK | – | 82%
5 | M3-11 (X = H) heavy chain with K1 light chain (antibody, V domains shown, Position counted within VH CDR3; also called M3-11 H) VH: EVQLLESGGGLVQPGGSLRLSCAFSGFTLSTSGMGIGWVRQAPGKGLEWVAHIWWDDDKYYNPSLKSRFTISRDTSKNTVYLQMNSLRAEDTAVYYCARNYYPYDAWFDHWGQGTLVTVS VL: DIQMTQSPSSLSASVGDRVTITCSASSSINSNHLHWYQQKPGKAPKLLIYRTSILASGVPSRFSGSGSGTSFTLTISSLQPEDFATYYCQQGSNIPFTFGQGTKVEIK | – | 104%
6 | M3-4 (X = V) heavy chain with K1 light chain (antibody, V domains shown, Position counted within VH CDR3; also called M3-4 V) VH: EVQLLESGGGLVQPGGSLRLSCAFSGFTLSTSGMGIGWVRQAPGKGLEWVAHIWWDDDKYYNPSLKSRFTISRDTSKNTVYLQMNSLRAEDTAVYYCARNYYVYDAWFDYWGQGTLVTVS VL: DIQMTQSPSSLSASVGDRVTITCSASSSINSNHLHWYQQKPGKAPKLLIYRTSILASGVPSRFSGSGSGTSFTLTISSLQPEDFATYYCQQGSNIPFTFGQGTKVEIK | 122% | –
7 | M3-4 (X = R) heavy chain with K1 light chain (antibody, V domains shown, Position counted within VH CDR3; also called M3-4 R) VH: EVQLLESGGGLVQPGGSLRLSCAFSGFTLSTSGMGIGWVRQAPGKGLEWVAHIWWDDDKYYNPSLKSRFTISRDTSKNTVYLQMNSLRAEDTAVYYCARNYYRYDAWFDYWGQGTLVTVS VL: DIQMTQSPSSLSASVGDRVTITCSASSSINSNHLHWYQQKPGKAPKLLIYRTSILASGVPSRFSGSGSGTSFTLTISSLQPEDFATYYCQQGSNIPFTFGQGTKVEIK | 106% | –
8 | M3-4 (X = T) heavy chain with K1 light chain (antibody, V domains shown, Position counted within VH CDR3; also called M3-4 T) VH: EVQLLESGGGLVQPGGSLRLSCAFSGFTLSTSGMGIGWVRQAPGKGLEWVAHIWWDDDKYYNPSLKSRFTISRDTSKNTVYLQMNSLRAEDTAVYYCARNYYTYDAWFDYWGQGTLVTVS VL: DIQMTQSPSSLSASVGDRVTITCSASSSINSNHLHWYQQKPGKAPKLLIYRTSILASGVPSRFSGSGSGTSFTLTISSLQPEDFATYYCQQGSNIPFTFGQGTKVEIK | 103% | –
9 | M3-11 (X = F) heavy chain with K1 light chain (antibody, V domains shown, Position counted within VH CDR3; also called M3-11 F) VH: EVQLLESGGGLVQPGGSLRLSCAFSGFTLSTSGMGIGWVRQAPGKGLEWVAHIWWDDDKYYNPSLKSRFTISRDTSKNTVYLQMNSLRAEDTAVYYCARNYYPYDAWFDFWGQGTLVTVS VL: DIQMTQSPSSLSASVGDRVTITCSASSSINSNHLHWYQQKPGKAPKLLIYRTSILASGVPSRFSGSGSGTSFTLTISSLQPEDFATYYCQQGSNIPFTFGQGTKVEIK | – | 93%
10 | M3-4 (X = N) heavy chain with K1 light chain (antibody, V domains shown, Position counted within VH CDR3; also called M3-4 N) VH: EVQLLESGGGLVQPGGSLRLSCAFSGFTLSTSGMGIGWVRQAPGKGLEWVAHIWWDDDKYYNPSLKSRFTISRDTSKNTVYLQMNSLRAEDTAVYYCARNYYNYDAWFDYWGQGTLVTVS VL: DIQMTQSPSSLSASVGDRVTITCSASSSINSNHLHWYQQKPGKAPKLLIYRTSILASGVPSRFSGSGSGTSFTLTISSLQPEDFATYYCQQGSNIPFTFGQGTKVEIK | 49% | –
11 | M3-4 (X = S) heavy chain with K1 light chain (antibody, V domains shown, Position counted within VH CDR3; also called M3-4 S) VH: EVQLLESGGGLVQPGGSLRLSCAFSGFTLSTSGMGIGWVRQAPGKGLEWVAHIWWDDDKYYNPSLKSRFTISRDTSKNTVYLQMNSLRAEDTAVYYCARNYYSYDAWFDYWGQGTLVTVS VL: DIQMTQSPSSLSASVGDRVTITCSASSSINSNHLHWYQQKPGKAPKLLIYRTSILASGVPSRFSGSGSGTSFTLTISSLQPEDFATYYCQQGSNIPFTFGQGTKVEIK | 110% | –
12 | M3-11 (X = R) heavy chain with K1 light chain (antibody, V domains shown, Position counted within VH CDR3; also called M3-11 R) VH: EVQLLESGGGLVQPGGSLRLSCAFSGFTLSTSGMGIGWVRQAPGKGLEWVAHIWWDDDKYYNPSLKSRFTISRDTSKNTVYLQMNSLRAEDTAVYYCARNYYPYDAWFDRWGQGTLVTVS VL: DIQMTQSPSSLSASVGDRVTITCSASSSINSNHLHWYQQKPGKAPKLLIYRTSILASGVPSRFSGSGSGTSFTLTISSLQPEDFATYYCQQGSNIPFTFGQGTKVEIK | – | 220%
13 | M3-11 (X = A) heavy chain with K1 light chain (antibody, V domains shown, Position counted within VH CDR3; also called M3-11 A) VH: EVQLLESGGGLVQPGGSLRLSCAFSGFTLSTSGMGIGWVRQAPGKGLEWVAHIWWDDDKYYNPSLKSRFTISRDTSKNTVYLQMNSLRAEDTAVYYCARNYYPYDAWFDAWGQGTLVTVS VL: DIQMTQSPSSLSASVGDRVTITCSASSSINSNHLHWYQQKPGKAPKLLIYRTSILASGVPSRFSGSGSGTSFTLTISSLQPEDFATYYCQQGSNIPFTFGQGTKVEIK | – | 93%
14 | M3-11 (X = Q) heavy chain with K1 light chain (antibody, V domains shown, Position counted within VH CDR3; also called M3-11 Q) VH: EVQLLESGGGLVQPGGSLRLSCAFSGFTLSTSGMGIGWVRQAPGKGLEWVAHIWWDDDKYYNPSLKSRFTISRDTSKNTVYLQMNSLRAEDTAVYYCARNYYPYDAWFDQWGQGTLVTVS VL: DIQMTQSPSSLSASVGDRVTITCSASSSINSNHLHWYQQKPGKAPKLLIYRTSILASGVPSRFSGSGSGTSFTLTISSLQPEDFATYYCQQGSNIPFTFGQGTKVEIK | – | 73%
15 | M3-11 (X = E) heavy chain with K1 light chain (antibody, V domains shown, Position counted within VH CDR3; also called M3-11 E) VH: EVQLLESGGGLVQPGGSLRLSCAFSGFTLSTSGMGIGWVRQAPGKGLEWVAHIWWDDDKYYNPSLKSRFTISRDTSKNTVYLQMNSLRAEDTAVYYCARNYYPYDAWFDEWGQGTLVTVS VL: DIQMTQSPSSLSASVGDRVTITCSASSSINSNHLHWYQQKPGKAPKLLIYRTSILASGVPSRFSGSGSGTSFTLTISSLQPEDFATYYCQQGSNIPFTFGQGTKVEIK | – | 105%
16 | M3-11 (X = C) heavy chain with K1 light chain (antibody, V domains shown, Position counted within VH CDR3; also called M3-11 C) VH: EVQLLESGGGLVQPGGSLRLSCAFSGFTLSTSGMGIGWVRQAPGKGLEWVAHIWWDDDKYYNPSLKSRFTISRDTSKNTVYLQMNSLRAEDTAVYYCARNYYPYDAWFDCWGQGTLVTVS VL: DIQMTQSPSSLSASVGDRVTITCSASSSINSNHLHWYQQKPGKAPKLLIYRTSILASGVPSRFSGSGSGTSFTLTISSLQPEDFATYYCQQGSNIPFTFGQGTKVEIK | – | 64%
17 | M3-11 (X = G) heavy chain with K1 light chain (antibody, V domains shown, Position counted within VH CDR3; also called M3-11 G) VH: EVQLLESGGGLVQPGGSLRLSCAFSGFTLSTSGMGIGWVRQAPGKGLEWVAHIWWDDDKYYNPSLKSRFTISRDTSKNTVYLQMNSLRAEDTAVYYCARNYYPYDAWFDGWGQGTLVTVS VL: DIQMTQSPSSLSASVGDRVTITCSASSSINSNHLHWYQQKPGKAPKLLIYRTSILASGVPSRFSGSGSGTSFTLTISSLQPEDFATYYCQQGSNIPFTFGQGTKVEIK | – | 63%
18 | M3-11 (X = D) heavy chain with K1 light chain (antibody, V domains shown, Position counted within VH CDR3; also called M3-11 D) VH: EVQLLESGGGLVQPGGSLRLSCAFSGFTLSTSGMGIGWVRQAPGKGLEWVAHIWWDDDKYYNPSLKSRFTISRDTSKNTVYLQMNSLRAEDTAVYYCARNYYPYDAWFDDWGQGTLVTVS VL: DIQMTQSPSSLSASVGDRVTITCSASSSINSNHLHWYQQKPGKAPKLLIYRTSILASGVPSRFSGSGSGTSFTLTISSLQPEDFATYYCQQGSNIPFTFGQGTKVEIK | – | 67%
19 | M3-4 (X = W) heavy chain with K1 light chain (antibody, V domains shown, Position counted within VH CDR3; also called M3-4 W) VH: EVQLLESGGGLVQPGGSLRLSCAFSGFTLSTSGMGIGWVRQAPGKGLEWVAHIWWDDDKYYNPSLKSRFTISRDTSKNTVYLQMNSLRAEDTAVYYCARNYYWYDAWFDYWGQGTLVTVS VL: DIQMTQSPSSLSASVGDRVTITCSASSSINSNHLHWYQQKPGKAPKLLIYRTSILASGVPSRFSGSGSGTSFTLTISSLQPEDFATYYCQQGSNIPFTFGQGTKVEIK | 93% | –
